From FireProtDB (doi:10.1021/bi00358a035)
Several values for one entry are separate records, joined by “and”; a condition that tells them apart may be missing. Equal entries are not always repeated.

Settings: Escherichia coli (strain K12); pH 7.8; 25 °C; Urea; CD; Potassium phosphate 10 mM; transition: 3; reversible: yes (>90%); whole UniProt chain shown

B1: Tryptophan synthase alpha chain wild type, P0A877 (protein)
chain: MERYESLFAQLKERKEGAFVPFVTLGDPGIEQSLKIIDTLIEAGADALELGIPFSDPLADGPTIQNATLRAFAAGVTPAQCFEMLALIRQKHPTIPIGLLMYANLVFNKGIDEFYAQCEKVGVDSVLVADVPVEESAPFRQAALRHNVAPIFICPPNADDDLLRQIASYGRGYTYLLSRAGVTGAENRAALPLNHLVAKLKEYNAAPPLQGFGISAPDQVKAAIDAGAAGAISGSAIVKIIEQHINEPEKMLAALKVFVQPMKAATRS
- denaturant m value: 2.2 kcal/mol/M and 1.2 kcal/mol/M
- denaturant midpoint (higher = more stable): 2.62 M and 4.18 M
- unfolding free energy: 5.7 kcal/mol and 5 kcal/mol
